The values below come from patent US20240000834A1, “RAS MUTANT EPITOPE PEPTIDE AND T CELL RECEPTOR RECOGNIZING RAS MUTANT” (SHANGHAI GENBASE BIOTECHNOLOGY CO., LTD., priority 2020, published 2024).

Changes are numbered by the printed parent chain.

This assay concerns the target T1, KRAS-G12V antigen (RAS G12V-T15 peptide) (Homo sapiens, UniProt P01116, G12V).
T1 construct: endogenous in cells; host or cells: patient B13 autologous LCL cells (endogenous HLA-DP); the peptide is synthetic
In words: TCR mutant screening in Jurkat-NFAT-Luc cells with antigen-loaded B13 LCL cells (ONE Glo Luciferase). Type of assay: cell-based. The settings on record: MHC-II binding region mutants; ratio to wild-type B13.14.1 TCR; 16-24 hours. On the procedure: According to the table below, point mutations were performed on the Vα and Vβ of B13.14.1 TCR (including CDR3 region and […]), and a lentiviral vector shuttle plasmid encoding the TCR mutant was constructed, packaged with the standard lentiviral vector in 293T cells, and B13.14.1TCR mutant were subjected to function screening.
The TCR mutant (CDR3 region) lentiviral vector was transduced into Jurkat-NFAT-Luc cell line, and B13 LCL cells loaded with KRAS-G12V antigen (RAS G12V-T15 peptide, SEQ ID NO: 5) were used as antigen-presenting cells. 2×10^4 TCR-T and 2×10^4 antigen-loaded B13 LCL cells were co-cultured for 16-24 hours, and added with ONE Glo Luciferase to detect the expression of fluorescent signal, and the TCR Mut RLU/WT RLU (ratio of RLU signal value of TCR mutant to RLU signal value of wild-type B13.14.1 TCR) was calculated.
The TCR mutant (MHC-II binding region) lentiviral vector was transduced into the Jurkat-NFAT-Luc cell line, and B13 LCL cells loaded with KRAS-G12V antigen (RAS G12V-T15 peptide, SEQ ID NO: 5) were used as the antigen-presenting cells. 2×10^4 TCR-T and 2×10^4 antigen-loaded B13 LCL cells were co-cultured for 16-24 hours, the fluorescence signal expression was detected by adding ONE Glo Luciferase, and TCR Mut RLU/WT RLU (ratio of RLU signal value of TCR mutant to RLU signal value of wild-type B13.14.1TCR) was calculated.

B1: β51I-P: B13.14.1 TCR Vβ point mutant (protein)
TCR alpha: AQSVAQPEDQVNVAEGNPLTVKCTYSVSGNPYLFWYVQYPNRGLQFLLKYITGDNLVKGSYGFEAEFNKSQTSFHLKKPSALVSDSALYFCAVRDGRGGGNKLTFGTGTQLKVEL
TCR beta: GITQSPKYLFRKEGQNVTLSCEQNLNHDAMYWYRQDPGQGLRLIYYSQPVNDFQKGDIAEGYSVSREKKESFPLTVTSAQKNPTAFYLCASSPGQRDNSPLHFGNGTRLTVT
On to B1, for which the “TCR Mut RLU/WT RLU” value is listed as 19.95%.

B2: α32Y-A: B13.14.1 TCR Vα point mutant (protein)
TCR alpha: B1 TCR alpha with Y32A
TCR beta: B1 TCR beta with P49I
In the case of B2, the “TCR Mut RLU/WT RLU” value was determined as 4.68%.

B3: α51I-P: B13.14.1 TCR Vα point mutant (protein)
TCR alpha: B1 TCR alpha with I51P
TCR beta: B1 TCR beta with P49I
Take B3: the “TCR Mut RLU/WT RLU” value came out at 82.47%.

B4: α32Y-F: B13.14.1 TCR Vα point mutant (protein)
TCR alpha: B1 TCR alpha with Y32F
TCR beta: B1 TCR beta with P49I
Regarding B4, the “TCR Mut RLU/WT RLU” value is given as 3.81%.

B5: α32Y-E: B13.14.1 TCR Vα point mutant (protein)
TCR alpha: B1 TCR alpha with Y32E
TCR beta: B1 TCR beta with P49I
For B5, the “TCR Mut RLU/WT RLU” value was found to be 4.59%.

B6: α32Y-I: B13.14.1 TCR Vα point mutant (protein)
TCR alpha: B1 TCR alpha with Y32I
TCR beta: B1 TCR beta with P49I
In the case of B6, the “TCR Mut RLU/WT RLU” value turned out to be 4.64%.

B7: α51I-N: B13.14.1 TCR Vα point mutant (protein)
TCR alpha: B1 TCR alpha with I51N
TCR beta: B1 TCR beta with P49I
For the molecule B7, the “TCR Mut RLU/WT RLU” value worked out at 84.17%.

B8: β51I-V: B13.14.1 TCR Vβ point mutant (protein)
TCR alpha: B1 TCR alpha
TCR beta: B1 TCR beta with P49V
In the case of B8, the “TCR Mut RLU/WT RLU” value was found to be 35.46%.

B9: α51I-H: B13.14.1 TCR Vα point mutant (protein)
TCR alpha: B1 TCR alpha with I51H
TCR beta: B1 TCR beta with P49I
In the case of B9, the “TCR Mut RLU/WT RLU” value worked out at 85.85%.

B10: α32Y-T: B13.14.1 TCR Vα point mutant (protein)
TCR alpha: B1 TCR alpha with Y32T
TCR beta: B1 TCR beta with P49I
On to B10, for which the “TCR Mut RLU/WT RLU” value is listed as 3.77%.

B11: α32Y-L: B13.14.1 TCR Vα point mutant (protein)
TCR alpha: B1 TCR alpha with Y32L
TCR beta: B1 TCR beta with P49I
For the molecule B11, the “TCR Mut RLU/WT RLU” value stood at 6.35%.

B12: α32Y-H: B13.14.1 TCR Vα point mutant (protein)
TCR alpha: B1 TCR alpha with Y32H
TCR beta: B1 TCR beta with P49I
As to B12, the “TCR Mut RLU/WT RLU” value came out at 5.60%.

B13: β51I-R: B13.14.1 TCR Vβ point mutant (protein)
TCR alpha: B1 TCR alpha
TCR beta: B1 TCR beta with P49R
Consider B13, for which the “TCR Mut RLU/WT RLU” value is given as 9.90%.

B14: α32Y-S: B13.14.1 TCR Vα point mutant (protein)
TCR alpha: B1 TCR alpha with Y32S
TCR beta: B1 TCR beta with P49I
On to B14, for which the “TCR Mut RLU/WT RLU” value turned out to be 5.77%.

B15: α32Y-M: B13.14.1 TCR Vα point mutant (protein)
TCR alpha: B1 TCR alpha with Y32M
TCR beta: B1 TCR beta with P49I
B15: the “TCR Mut RLU/WT RLU” value was determined as 4.94%.

B16: α51I-M: B13.14.1 TCR Vα point mutant (protein)
TCR alpha: B1 TCR alpha with I51M
TCR beta: B1 TCR beta with P49I
Consider B16, for which the “TCR Mut RLU/WT RLU” value is recorded as 68.25%.

B17: α32Y-R: B13.14.1 TCR Vα point mutant (protein)
TCR alpha: B1 TCR alpha with Y32R
TCR beta: B1 TCR beta with P49I
With B17, the “TCR Mut RLU/WT RLU” value was 5.60%.

B18: β51I-T: B13.14.1 TCR Vβ point mutant (protein)
TCR alpha: B1 TCR alpha
TCR beta: B1 TCR beta with P49T
As to B18, the “TCR Mut RLU/WT RLU” value came out at 88.58%.

B19: β51I-Y: B13.14.1 TCR Vβ point mutant (protein)
TCR alpha: B1 TCR alpha
TCR beta: B1 TCR beta with P49Y
Take B19: the “TCR Mut RLU/WT RLU” value stood at 19.64%.

B20: α32Y-P: B13.14.1 TCR Vα point mutant (protein)
TCR alpha: B1 TCR alpha with Y32P
TCR beta: B1 TCR beta with P49I
In the case of B20, the “TCR Mut RLU/WT RLU” value worked out at 3.98%.

B21: α32Y-W: B13.14.1 TCR Vα point mutant (protein)
TCR alpha: B1 TCR alpha with Y32W
TCR beta: B1 TCR beta with P49I
Consider B21, for which the “TCR Mut RLU/WT RLU” value was found to be 3.81%.

B22: β51I-W: B13.14.1 TCR Vβ point mutant (protein)
TCR alpha: B1 TCR alpha
TCR beta: B1 TCR beta with P49W
B22: the “TCR Mut RLU/WT RLU” value was 22.56%.

B23: α32Y-V: B13.14.1 TCR Vα point mutant (protein)
TCR alpha: B1 TCR alpha with Y32V
TCR beta: B1 TCR beta with P49I
In the case of B23, the “TCR Mut RLU/WT RLU” value was 4.71%.

B24: α51I-Q: B13.14.1 TCR Vα point mutant (protein)
TCR alpha: B1 TCR alpha with I51Q
TCR beta: B1 TCR beta with P49I
For the molecule B24, the “TCR Mut RLU/WT RLU” value was 71.70%.

B25: β51I-Q: B13.14.1 TCR Vβ point mutant (protein)
TCR alpha: B1 TCR alpha
TCR beta: B1 TCR beta with P49Q
On to B25, for which the “TCR Mut RLU/WT RLU” value worked out at 12.98%.

B26: β51I-S: B13.14.1 TCR Vβ point mutant (protein)
TCR alpha: B1 TCR alpha
TCR beta: B1 TCR beta with P49S
For B26, the “TCR Mut RLU/WT RLU” value worked out at 21.00%.

B27: α51I-G: B13.14.1 TCR Vα point mutant (protein)
TCR alpha: B1 TCR alpha with I51G
TCR beta: B1 TCR beta with P49I
Turning to B27, the “TCR Mut RLU/WT RLU” value is 90.09%.

B28: α51I-A: B13.14.1 TCR Vα point mutant (protein)
TCR alpha: B1 TCR alpha with I51A
TCR beta: B1 TCR beta with P49I
B28: the “TCR Mut RLU/WT RLU” value is 56.93%.

B29: α51I-D: B13.14.1 TCR Vα point mutant (protein)
TCR alpha: B1 TCR alpha with I51D
TCR beta: B1 TCR beta with P49I
B29: the “TCR Mut RLU/WT RLU” value stood at 93.65%.

B30: α51I-R: B13.14.1 TCR Vα point mutant (protein)
TCR alpha: B1 TCR alpha with I51R
TCR beta: B1 TCR beta with P49I
For the molecule B30, the “TCR Mut RLU/WT RLU” value amounted to 87.31%.

B31: α32Y-G: B13.14.1 TCR Vα point mutant (protein)
TCR alpha: B1 TCR alpha with Y32G
TCR beta: B1 TCR beta with P49I
As for B31, the “TCR Mut RLU/WT RLU” value was 4.03%.
